Results taken from the nanobody polyreactivity screen of Harvey et al. (2022).

Experiment: yeast display, Sf9 membrane polyspecificity reagent, FACS + sequencing; frameworks hold sequencing errors
Summary of the method: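 Nanobodies came from a synthetic yeast display library in Saccharomyces cerevisiae BJ5465, induced with galactose for 36–48 hours and stained for 1 hour at 4 °C with 10% biotinylated, detergent-solubilized Sf9 membrane reagent. Cells were enriched on streptavidin microbeads and then FACS-sorted, with low and high (top ~1%) gates set on anti-HA fluorescence for expression and streptavidin fluorescence for reagent binding. Each polyreactivity label reflects the gate a clone came from. Genes were amplified by colony PCR, sequenced by MiSeq 2 × 250 and filtered by CDR length.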

| Sequence | polyreactivity (PSR sort gate) |
| --- | --- |
| QVQLVESGVGLVQAGGSLRLSCAASGLTFRPNAMGWYRQAPGKERELVASISFSGGSTYYADSVKGRFTISRDNAKNTVYLQMNSLKPEDTAVYYCAADVATTHELDYWGQGTQVTVSS | high polyreactivity |
| QVQLVESGVGLVQAGGSLRLSCAASGLTFRYYAMGWYRQAPGKERELVAAITRRGSTYYADSVKGRFTISRDNAKNTVYLQMISLKPEVTAVYYCATVTGFHSSPLRDLDYWGQGTQVTVSS | high polyreactivity |
| QVQLVESGVGLVQAGGSLRLSCAASGLTYYGYVMGWYRQAPGKERELVAAISQSGGTTYYADSVNGRFTISRDNAKNTFYLHMNSLTPEDTAVYYCAADHFYILIFLYGKLTLDYWGQGTQVTVSS | high polyreactivity |
| QVQLVESGVGLVQAGGSLRLSCAASGRIFAFYTMGWYRQAPGKERELVAASSTRGDSTYYADSVKGRFTISRDNAKNTVYLQMNSLKAEDTAVYYCAKSRQTSGRVRFDYWGQGTQVTVSS | low polyreactivity |
| QVQLVESGVGLVQAGGSLRLSCAASGRIFAHNAMGWYRQAPGKERELVAAISTGGSTNYADSVKGRFTISRDNAKNTVYLQMNSLKPEDTAVYYCARDAYLPRIADGDGRYELVDYWGQGTQVTVSS | low polyreactivity |
| QVQLVESGVGLVQAGGSLRLSCAASGRIFGYYTMGWYRQAPGKERELVADSSGGNTSYADSVKGRFTISRDNAKNTVYLQMNSLKPEDTAGYYCAKDLPGAWRGDDYWGQGTQVTVSS | low polyreactivity |
| QVQLVESGVGLVQAGGSLRLSCAASGRIFIKYAMGWYRQAPGKEREFVAAISGRGGSTYYADSVKGRFTISRDNAKNTVYLQMNSLKPEDTAFYYCAKRFFYSGTAAGMYYWGQGTQVTVSS | high polyreactivity |
| QVQLVESGVGLVQAGGSLRLSCAASGRIFSFYAMGWYRQAPGKERELVAAITYTDGSTYAVSVKGRFTISRDYAKNTVYLQTNSLKPEDTAVYYCATRYRWTPYDYWGQGTQVTVSS | low polyreactivity |
| QVQLVESGVGLVQAGGSLRLSCAASGRIFTFNVMGWYRQAPGKERELVAAITFSGGSTYYADSVKGRFTISRDNAKNTVYLQMNRLKTEDTAVYFCAAKISLGDDYWGQGTQVTVSS | low polyreactivity |
| QVQLVESGVGLVQAGGSLRLSCAASGRIFVKYAMGWYRQAPGQEREFVAAITQGGGRTFYADSVKGRFTSSRDNAKNTVYLQMNSLKPEDTAVYYCAATGRGYGRRYFVVYRYDYWGQGTQVTVSS | high polyreactivity |
| QVQLVESGVGLVQAGGSLRLSCAASGRIVWGYAMGWYRQAPGKERELVATITRGGSTNYADSVKGRFTISRDNAKHTVYLQMNSLKPEDTAVYYCARDWGKSEYDYWGQGTQVTVSS | high polyreactivity |
| QVQLVESGVGLVQAGGSLRLSCAASGSIFFYAMGWYRQAPGKERELVADITYTGGSKYADSVKGRFTISRDNAKNTVYLQMNSLKPEDTAVYYCAKLDGGLFDYWGQGTQVTVSS | low polyreactivity |
| QVQLVESGVGLVQAGGSLRLSCAASGSIFGFYAMGWSRQAPGKERELVAAISDSGDSTYYADSVKGRFTISRDNAKNTVYLQMNSLKPEDTAVYNCATDGRSNYYWGDYWGQGTQVTVSS | low polyreactivity |
| QVQLVESGVGLVQAGGSLRLSCAASGSIFGFYAMGWYRQAPGKERELVAAITSGDSTHYADSVKGRFTISRDNAKNTVYLQMNSLKPEDTAVYYCAASAPYRYYRSAYYYWGQGTQVTVSS | low polyreactivity |
| QVQLVESGVGLVQAGGSLRLSCAASGSIFTYNAMGLYRQAPGKERELVAAISRRGGTTYYADSVKGRITISRDNAMNTVYLKMNSLKPEDTAVYYCNVARHYAVESGFWGPGTQVTVSS | high polyreactivity |
| QVQLVESGVGLVQAGGSLRLSCAASGSIINFYAMGLYRQAPGKERELVAAINYNDINTYYADSVKGRFTISRDNAKNTVYLQMNSLKPEDTAVYYCNAELNVQYLYGYTGEYDYWGQGTQVTVSS | low polyreactivity |
| QVQLVESGVGLVQAGGSLRLSCAASGSILFYYAMGWYRQAPGKERELVAAITYSGARSYYADSVKGRFTISRDNAKNTVYLQMNSLKPEDTAVYYWAADQVYGIGYEYWGQGTQVTVSS | low polyreactivity |
| QVQLVESGVGLVQAGGSLRLSCAASGSTFDTYAMGWYRQAPGKERELVAAITSSGSTYYADSVKGRFTISRDNAKNTVYLQMNSLKPEDTAVYYCAADLSYLYAHNPGDYWGQGTQVTVSS | low polyreactivity |
| QVQLVESGVGLVQAGGSLRLSCAASGSTFEYNAMGWYRQAPGKERELVASSTNYADSVKGRFTISRDNAKNTVYLQMNSLKPEDTAVYYCAREQGVNRNHDYWGQGTQVTVSS | low polyreactivity |
| QVQLVESGVGLVQAGGSLRLSCAASGSTFGRYAMGWYRQAPGKERELVARISWGGGSTYYADSVKGRFTISRDNAKNTVYILMISLKPEDSAVYDCATRVYRSAVSYDYWGQGTQVTVSS | high polyreactivity |
| QVQLVESGVGLVQAGGSLRLSCAASGSTFVKYVIGWYRQAPGKERELVAAISRSGGSTYYADSVKGRFTISRDNAKNTDYLQMNSLKPDDTAVYYCAARLFYRLDYRGGYYYWGQGTQVTVSS | high polyreactivity |
| QVQLVESGVGLVQAGGSLRLSCAPSGSIFGRNAMGWYRQAPGKERELVAAISGGGSTNYSDSVKGRFTISRDNAKNTVYLQMNSLKPEDTAVYYCNTYPGSRHWWYDYWGQGTQGTVSS | high polyreactivity |

| Sequence | polyreactivity (PSR sort gate) |
| --- | --- |
| QVQLVESGVGLVQAGGSLRLSCASSGRIFGHYAMGWYRQAPGTERELVAAISWRGGRTYYADSVKGRFTISRDHAKNTVYLQMNSLKPEDTAVYYCAAGSSRVFRKAGITRPSGLYYYWGQGTQVSVSS | high polyreactivity |
| QVQLVESGVGLVQAGGSLRLSCASSGSIFGRYTMGWYRQAPGKERELVAAITLRGGSTYYADSVKGRFTISRDNAKNTVYLQMNSLNQEDSAVYYCANDGWKQSAYDYWGQGTQVTVSS | low polyreactivity |
| QVQLVESGVGLVQAGGSLRLSCVASGLTFSRYAMGWYRQAPGKERELVAAISRRGGTTYYADSVKGRFTISRDNAKNTVYLQMKSLKPEDTAVYYCGAGYITWGSGNWVVTPYAYWGQGTQVSVSS | high polyreactivity |
| QVQLVESGVGLVQAGGSLRLSSAASGSIFHSYAMGWYRQAPGKERELVASITASGDSTYYADSVKGRFTISRDNAKNTVYLPMNSLKPEDTAVFYCNTQAVYGGGEGGYDYWGQGTQVTVSS | low polyreactivity |
| QVQLVESGVGLVQAGGSLRLSSAASGSISYSYAMGWYRQAPGKERELVAAITWVGDSTYYADSVKGRFTISRDNAKNTVYLQMNRQKPEDTAVYYCAADLRFTYPVYRHGGGYDYWGQGTQVTVSS | low polyreactivity |
| QVQLVESGVGLVQAGGSLRLTCAASGRIFDYYAMGWSRQAPGKETELVARISRGATTNYADSVKGRFTISRDNAKNTVYLQINSLKPEDTAVYSCNARQYLAYVSWKGMGFWGQGTQVTVSS | high polyreactivity |
| QVQLVESGVGLVQAGGSLSLICAASGRIFWPNAMGSYRQAPGKERELVAAISRGGNTNYADSVKGRFTISRDNAKNTVYLQMNSLKPEDTAVYYCAARNFALGYRFDYWGQGTQVTVSS | high polyreactivity |
| QVQLVESGVGLVQAGGSLSLSCAASGFTISLNTMGWYRQAPGKERELVAAITYSGTRTYYADSVKGRFTISRDNAKNTVDLQMNRLKPEDTAVYYCAARHGQSWQWLEYDYWGQGTQVTVSS | low polyreactivity |
| QVQLVESGVGLVQAGGSLSLSCAASGRIFTYNALGWYRQAPGKERELVAAISALGGITYYADSVKGRFTISRDNAKITVYLQMNSLKPEDTAVYYCNKRYSSWSGVHDYWGQGTQVTVSS | high polyreactivity |
| QVQLVESGVGLVQAGGSVRLSCAASGRTFTRYAMGWYRQAPGKEREWVAAITWSGGSTYYADSVKGRFTISRDNAKNTVYLQMNSLKPEDTAVYYCNAQRYGLFGSEHGYWGQGTQVTVSS | high polyreactivity |
| QVQLVESGVGLVQAGGSVRLSCAASGRTFYRYAMGWYRQAPGKERELVAAISSGGSTYYADSVKGRFTISRDNAKNTVYLQMNSLKPEDTAVYYCNADYGRRNHMDYWGQGTQVTVSS | low polyreactivity |
| QVQLVESGVGLVQAGVSLRLSCAASVSISTPYTMGWSRPAPGKERELVAAISWIGDTTSYADSVKGRFTISRDNAKNTVYLQMNRLKPEDTAVYYCNAEHRGYDYWGQGTQVTVSS | low polyreactivity |
| QVQLVESGVGLVQAVGSLRLSSPTSGIIFRYYSMVWYRHAPGKESEYVAVITRRGGGTYYAYSVKGRFTISRDNAKNTVYFEMNSLKPEDTAVYYCAKDFTGHYPKGFDYWGQGTQVTVSS | low polyreactivity |
| QVQLVESGVGLVQSGGSLRLSCAASGFIFRWYAKGWYRQAPGKERELVAAISGGGSSTYYADSVKGRFTISRDNEKNTVYLQMNSLKPEDNAVYYCAAYNTYLGYPYYYWGQGTQVTVSS | high polyreactivity |
| QVQLVESGVVLVEAGGSLRLSCAASGRILSVYAMGWYRQAPRKERELVAAIRRGVGSTYYADSVKGRFTISRDNAKNTVYLQMNSLKPEDTADYYCAPYSYHNRIRYDSWGQGTQVTVSS | high polyreactivity |
| QVQLVESGVVLVQAGGSLRLSCAASGSTFVRYAMGWYRQAPGKERELVAANSRSGGRTYYADSVKGRFTISRDNAKHTVYLQMNSLKPEDTAVYYCYPYYIASTFDYWGQGTQVTVSS | high polyreactivity |
| QVQLVESLGGLVQAGASLRLSCAASARTFVIYSMGSYREAPGKERELVAAITWNGETTYYADSVKGRFTISRDNAKNTVYLQMNSLKPEDTAVYYCAAETRSEYHYWGQGTQVTVSS | high polyreactivity |
| QVQLVESLGGLVQAGGSLRLSCAASGRTFPGYAMGWYRQAPGKERELVAAISYTGTRTYYADSVKGRFTISRDNAKNTVYLQMNSLKPEDTAVYFCAAGVQRVSGSYGYWGQGTQVTVSS | high polyreactivity |
| QVQLVESLGGLVQAGGSLRLSSAASGSIFRRYAMGWYREAPGKERELVAAITSGDTTKYADSLKGRFTISRDNAKNNVYLHMNSLKPEDTAVYYCNKKGWPRFVHGFLRRDDYWGQGTQVTLSS | low polyreactivity |
| QVQLVESRAGLVQAGGSLRLSCAASGSTRNRNVMGWYRPAPGKERELVAVITYGVGSTYYADSVKGRFTISRDNAKNTVYLQMNSLKPEDTAVYYCNKDPLVFDYWAQGTQVTVSS | low polyreactivity |
| QVQLVESRGCLVQAGGSLRLSCAASGRIFYYYDMGWYRQAPGKERELVAAITYSDSSTYADSVKRRFTISRDNAKNTVYLQMNSLKPEDTAVYYCAADYVYPGVRLEMDYWGQGTQVTVSS | low polyreactivity |
